First the molecules themselves.
B1: Nucleolar transcription factor 1, residues 408 to 469; numbered along this chain, P17480 (parent)
chain: KRPVSAMFIFSEEKRRQLQEERPELSESELTRLLARMWNDLSEKKKAKYKAREAALKAQSER

Data on 43 variants can be found in the Human Domainome abundance scans (Beltran et al. 2025).

± gives the uncertainty stated by the source.

The data set covers variants of B1. Nature of the data set: abundance fitness (aPCA) (normalised: wild type 0, dead -1); higher = more abundant; growth selection in yeast, the domain comes from the species named. The following applies: Homo sapiens.
With KRPVSAMFIFSEEKRRQLQEERPELSESELTRLLARMWNDLSEKKKAKYMAREAALKAQSER, the abundance fitness was -0.096 ± 0.083.

For the variant KRPVSAMFIFSEEKRRQLQEERPELSESELTRLLARMWNDLSEKKKAKYHAREAALKAQSER, the abundance fitness was -0.036 ± 0.13.

As for KRPVSAMFIFSEEKRRQLQEERPELSESELTRLLARMWNDLSEKKKAKYGAREAALKAQSER, the abundance fitness is -0.251 ± 0.074.

Consider KRPVSAMFIFSEEKRRQLQEERPELSESELTRLLARMWNDLSEKKKAKYYAREAALKAQSER, for which the abundance fitness is -0.074 ± 0.22.

Take KRPVSAMFIFSEEKRRQLQEERPELSESELTRLLARMWNDLSEKKKAKYWAREAALKAQSER: the abundance fitness is -0.134 ± 0.059.

Consider KRPVSAMFIFSEEKRRQLQEERPELSESELTRLLARMWNDLSEKKKAKYIAREAALKAQSER, for which the abundance fitness is 0.005 ± 0.11.

In the case of KRPVSAMFIFSEEKRRQLQEERPELSESELTRLLARMWNDLSEKKKAKYQAREAALKAQSER, the abundance fitness was -0.016 ± 0.079.

Consider KRPVSAMFIFSEEKRRQLQEERPELSESELTRLLARMWNDLSEKKKAKYVAREAALKAQSER, for which the abundance fitness was -0.038 ± 0.064.

Regarding KRPVSAMFIFSEEKRRQLQEERPELSESELTRLLARMWNDLSEKKKAKYKALEAALKAQSER, the abundance fitness was -0.114 ± 0.045.

As to KRPVSAMFIFSEEKRRQLQEERPELSESELTRLLARMWNDLSEKKKAKYKAPEAALKAQSER, the abundance fitness was -0.254 ± 0.064.

On to KRPVSAMFIFSEEKRRQLQEERPELSESELTRLLARMWNDLSEKKKAKYKAWEAALKAQSER, for which the abundance fitness is -0.234 ± 0.077.

Regarding KRPVSAMFIFSEEKRRQLQEERPELSESELTRLLARMWNDLSEKKKAKYKAAEAALKAQSER, the abundance fitness was -0.17 ± 0.066.

As for KRPVSAMFIFSEEKRRQLQEERPELSESELTRLLARMWNDLSEKKKAKYKADEAALKAQSER, the abundance fitness is -0.106 ± 0.14.

For the variant KRPVSAMFIFSEEKRRQLQEERPELSESELTRLLARMWNDLSEKKKAKYKAEEAALKAQSER, the abundance fitness is -0.026 ± 0.073.

For the variant KRPVSAMFIFSEEKRRQLQEERPELSESELTRLLARMWNDLSEKKKAKYKAYEAALKAQSER, the abundance fitness is -0.324 ± 0.11.

As to KRPVSAMFIFSEEKRRQLQEERPELSESELTRLLARMWNDLSEKKKAKYKATEAALKAQSER, the abundance fitness was -0.042 ± 0.079.

In the case of KRPVSAMFIFSEEKRRQLQEERPELSESELTRLLARMWNDLSEKKKAKYKACEAALKAQSER, the abundance fitness is -0.111 ± 0.078.

For the variant KRPVSAMFIFSEEKRRQLQEERPELSESELTRLLARMWNDLSEKKKAKYKAFEAALKAQSER, the abundance fitness is -0.209 ± 0.1.

For the variant KRPVSAMFIFSEEKRRQLQEERPELSESELTRLLARMWNDLSEKKKAKYKAHEAALKAQSER, the abundance fitness was -0.1 ± 0.099.

Turning to KRPVSAMFIFSEEKRRQLQEERPELSESELTRLLARMWNDLSEKKKAKYKAIEAALKAQSER, the abundance fitness is -0.134 ± 0.11.

In the case of KRPVSAMFIFSEEKRRQLQEERPELSESELTRLLARMWNDLSEKKKAKYKASEAALKAQSER, the abundance fitness is -0.137 ± 0.046.

For KRPVSAMFIFSEEKRRQLQEERPELSESELTRLLARMWNDLSEKKKAKYKAGEAALKAQSER, the abundance fitness was -0.193 ± 0.048.

Regarding KRPVSAMFIFSEEKRRQLQEERPELSESELTRLLARMWNDLSEKKKAKYKAKEAALKAQSER, the abundance fitness turned out to be 0.014 ± 0.1.

Regarding KRPVSAMFIFSEEKRRQLQEERPELSESELTRLLARMWNDLSEKKKAKYKAVEAALKAQSER, the abundance fitness is -0.127 ± 0.058.

For KRPVSAMFIFSEEKRRQLQEERPELSESELTRLLARMWNDLSEKKKAKYKAQEAALKAQSER, the abundance fitness came out at 0.002 ± 0.06.

On to KRPVSAMFIFSEEKRRQLQEERPELSESELTRLLARMWNDLSEKKKAKYKAMEAALKAQSER, for which the abundance fitness is -0.092 ± 0.061.

With KRPVSAMFIFSEEKRRQLQEERPELSESELTRLLARMWNDLSEKKKAKYKANEAALKAQSER, the abundance fitness is -0.277 ± 0.11.

With KRPVSAMFIFSEEKRRQLQEERPELSESELTRLLARMWNDLSEKKKAKYKMREAALKAQSER, the abundance fitness is -0.059 ± 0.074.

As for KRPVSAMFIFSEEKRRQLQEERPELSESELTRLLARMWNDLSEKKKAKYKEREAALKAQSER, the abundance fitness was -0.033 ± 0.082.

KRPVSAMFIFSEEKRRQLQEERPELSESELTRLLARMWNDLSEKKKAKYKGREAALKAQSER: the abundance fitness was -0.101 ± 0.047.

For KRPVSAMFIFSEEKRRQLQEERPELSESELTRLLARMWNDLSEKKKAKYKDREAALKAQSER, the abundance fitness was -0.102 ± 0.06.

Regarding KRPVSAMFIFSEEKRRQLQEERPELSESELTRLLARMWNDLSEKKKAKYKFREAALKAQSER, the abundance fitness is -0.079 ± 0.07.

In the case of KRPVSAMFIFSEEKRRQLQEERPELSESELTRLLARMWNDLSEKKKAKYKCREAALKAQSER, the abundance fitness is -0.166 ± 0.094.

Consider KRPVSAMFIFSEEKRRQLQEERPELSESELTRLLARMWNDLSEKKKAKYKYREAALKAQSER, for which the abundance fitness is -0.097 ± 0.18.

For KRPVSAMFIFSEEKRRQLQEERPELSESELTRLLARMWNDLSEKKKAKYKHREAALKAQSER, the abundance fitness was -0.142 ± 0.12.

On to KRPVSAMFIFSEEKRRQLQEERPELSESELTRLLARMWNDLSEKKKAKYKSREAALKAQSER, for which the abundance fitness is -0.066 ± 0.052.

With KRPVSAMFIFSEEKRRQLQEERPELSESELTRLLARMWNDLSEKKKAKYKWREAALKAQSER, the abundance fitness was -0.219 ± 0.082.

For the variant KRPVSAMFIFSEEKRRQLQEERPELSESELTRLLARMWNDLSEKKKAKYKVREAALKAQSER, the abundance fitness is -0.059 ± 0.051.

For the variant KRPVSAMFIFSEEKRRQLQEERPELSESELTRLLARMWNDLSEKKKAKYKLREAALKAQSER, the abundance fitness is -0.042 ± 0.051.

Regarding KRPVSAMFIFSEEKRRQLQEERPELSESELTRLLARMWNDLSEKKKAKYKIREAALKAQSER, the abundance fitness is -0.148 ± 0.075.

With KRPVSAMFIFSEEKRRQLQEERPELSESELTRLLARMWNDLSEKKKAKYKPREAALKAQSER, the abundance fitness is -0.374 ± 0.094.

Regarding KRPVSAMFIFSEEKRRQLQEERPELSESELTRLLARMWNDLSEKKKAKYKKREAALKAQSER, the abundance fitness is -0.052 ± 0.086.

Consider KRPVSAMFIFSEEKRRQLQEERPELSESELTRLLARMWNDLSEKKKAKYKQREAALKAQSER, for which the abundance fitness was -0.053 ± 0.082.
